Experimental data reported in patent US20090232823A1 (Eli Lilly, published 2009).

How the values were obtained:
[1] = molecular target: recombinant human TYRP1 (tyrosinase-related protein-1) (human) (UniProt P17643); assay: SPR (Biacore), TYRP1 immobilized on CM5 chip, antibody injected, 20-25 °C
[2] = molecular target: recombinant human TYRP1 (tyrosinase-related protein-1) (human) (UniProt P17643); assay: SPR (Biacore), TYRP1 immobilized; summary table
[3] = molecular target: recombinant human TYRP1 (tyrosinase-related protein-1) (human) (UniProt P17643); assay: ELISA, plate coated with recombinant human TYRP1, antibody titrated
[4] = molecular target: recombinant human TYRP1 (tyrosinase-related protein-1) (human) (UniProt P17643); assay: ELISA on plate-coated recombinant human TYRP1 (column headed 'Competition ELISA'); summary table
[5] = molecular target: native human TYRP1 expressed on human melanoma cell lines (624mel, SKmel28, SKmel23) (human, UniProt P17643 25-537); assay: cell-based or functional assay

Kd [1] [nM] | koff [1] [s⁻¹] | kon [1] [M⁻¹ s⁻¹] | Kd [2] [nM] | EC50 [3] [nM] | EC50 [4] [nM] | Human ADCC (%) [5] [%] | Molecule
1.7 | 0.00016 | 95000 | 1.7 | 0.4 | 0.4 | – | TA99, murine monoclonal antibody (IgG2a) specific for human and murine TYRP1
– | – | – | – | – | – | 48 | CTA99, chimeric antibody with a human constant region IgG1 (antibody, V domains shown) VH: EVQLQQSGAELVRPGALVKLSCKTSGFNIKDYFLHWVRQRPDQGLEWIGWINPDNGNTVYDPKFQGTASLTADTSSNTVYLQLSGLTSEDTAVYFCTRRDYTYEKAALDYWGQGASVIVFS VL: AIQMSQSPASLSASVGETVTITCRASGNIYNYLAWYQQKQGKSPHLLVYDAKTLADGVPSRFSGSGSGTQYSLKISSLQTEDSGNYYCQHFWSLPFTFGSGTKLEIKR
